Assay results: article PMC10786891, “Massively parallel profiling of RNA-targeting CRISPR-Cas13d”
Numbering of substitutions follows the chain as printed. In names and notes the source's numbering stands.

T1: EsCas13d, nuclease-dead (Eubacterium siraeum, UniProt B0MS50, R295A;H300A;R849A;H854A)
T1 sequence: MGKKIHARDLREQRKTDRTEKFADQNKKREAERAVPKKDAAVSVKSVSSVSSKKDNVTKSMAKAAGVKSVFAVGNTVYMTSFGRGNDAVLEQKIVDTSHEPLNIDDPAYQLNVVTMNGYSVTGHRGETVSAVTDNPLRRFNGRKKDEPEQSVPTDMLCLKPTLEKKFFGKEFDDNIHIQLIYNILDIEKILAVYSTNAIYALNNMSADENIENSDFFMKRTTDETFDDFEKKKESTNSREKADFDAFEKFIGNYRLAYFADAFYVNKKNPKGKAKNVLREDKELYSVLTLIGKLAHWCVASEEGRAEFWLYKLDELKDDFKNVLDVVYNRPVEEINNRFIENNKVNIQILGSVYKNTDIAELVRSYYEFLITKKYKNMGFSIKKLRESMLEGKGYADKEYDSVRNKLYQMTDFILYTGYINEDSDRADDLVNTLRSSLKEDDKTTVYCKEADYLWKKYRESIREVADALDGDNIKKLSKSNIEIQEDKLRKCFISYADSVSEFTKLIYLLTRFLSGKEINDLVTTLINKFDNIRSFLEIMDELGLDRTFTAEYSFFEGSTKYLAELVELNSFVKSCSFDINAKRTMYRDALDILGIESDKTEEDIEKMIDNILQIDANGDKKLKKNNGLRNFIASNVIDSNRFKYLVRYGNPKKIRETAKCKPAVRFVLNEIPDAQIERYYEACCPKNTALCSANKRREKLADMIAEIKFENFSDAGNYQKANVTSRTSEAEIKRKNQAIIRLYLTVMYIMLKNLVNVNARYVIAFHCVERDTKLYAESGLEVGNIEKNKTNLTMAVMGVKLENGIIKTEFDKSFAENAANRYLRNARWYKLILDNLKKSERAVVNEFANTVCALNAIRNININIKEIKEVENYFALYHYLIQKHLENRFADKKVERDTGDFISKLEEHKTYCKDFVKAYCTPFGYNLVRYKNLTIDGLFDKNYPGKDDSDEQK

B1: target 1 insA 3' of 5,insG 3' of 3 (mixed)
RNA 1: CACCCGUGCAAAAAUGCAGGGGUCUAAAACUGAGCGGAUAACCUCUCUAUGG
RNA 2: GGGAAUGGAUCCACAUCUACGAAUUCGUACCAUAGAGAGGUUAUCCGACUGCACCGAGAUCGGAAGAGCACACGU
B2: target 1 C7A,A20C (mixed)
RNA 1: B1 RNA 1
RNA 2: GGGAAUGGAUCCACAUCUACGAAUUCGUACCCUAGAGAGGUUAUACGCUCACCGAGAUCGGAAGAGCACACGU
B3: target 1 C2A,G17C (mixed)
RNA 1: B1 RNA 1
RNA 2: B2 RNA 2 with C32A, G35C, A45C, C50A
B4: target 1 insU 3' of 7,insU 3' of 6 (mixed)
RNA 1: B1 RNA 1
RNA 2: B1 RNA 2 with C46U, G47C, A48U, C49G, U50C, G51U
B5: target 1 G13U,A20C (mixed)
RNA 1: B1 RNA 1
RNA 2: B2 RNA 2 with G39U, A45C
B6: target 1 insU 3' of 21,insU 3' of 14 (mixed)
RNA 1: B1 RNA 1
RNA 2: GGGAAUGGAUCCACAUCUACGAAUUCGUACCUAUAGAGAUGGUUAUCCGCUCACCGAGAUCGGAAGAGCACACGU
B7: target 1 A1C,G12U (mixed)
RNA 1: B1 RNA 1
RNA 2: B2 RNA 2 with C32A, G40U, A45C, A51C
B8: target 1 G12U (mixed)
RNA 1: B1 RNA 1
RNA 2: B2 RNA 2 with C32A, G40U, A45C
B9: target 1 A1G,G12U (mixed)
RNA 1: B1 RNA 1
RNA 2: B2 RNA 2 with C32A, G40U, A45C, A51G
B10: target 1 C21A (mixed)
RNA 1: B1 RNA 1
RNA 2: B2 RNA 2 with C31A, C32A, A45C
B11: target 1 C7G,U19C (mixed)
RNA 1: B1 RNA 1
RNA 2: B2 RNA 2 with C32A, U33C, A45G
B12: target 1 U8C,U19G (mixed)
RNA 1: B1 RNA 1
RNA 2: B2 RNA 2 with C32A, U33G, U44C, A45C
B13: target 1 insU 3' of 5,insU 3' of 5 (mixed)
RNA 1: B1 RNA 1
RNA 2: B1 RNA 2 with A48U, C49U, U50C, G51U
B14: target 1 A14G,G17U (mixed)
RNA 1: B1 RNA 1
RNA 2: B2 RNA 2 with C32A, G35U, A38G, A45C
B15: target 1 C6U,U11C (mixed)
RNA 1: B1 RNA 1
RNA 2: B2 RNA 2 with C32A, U41C, A45C, C46U
B16: target 1 insG 3' of 14,insG 3' of 11 (mixed)
RNA 1: B1 RNA 1
RNA 2: B1 RNA 2 with U41G, A43G, C45A, C46U, G47C, A48C, C49G, U50C, G51U
B17: target 1 insU 3' of 12 (mixed)
RNA 1: B1 RNA 1
RNA 2: GGGAAUGGAUCCACAUCUACGAAUUCGUACCAUAGAGAGGUUUAUCCGCUCACCGAGAUCGGAAGAGCACACGU
B18: target 1 insC 3' of 11,insC 3' of 3 (mixed)
RNA 1: B1 RNA 1
RNA 2: B1 RNA 2 with U42C, A43U, U44A, C45U, G47C, A48G, G51C
B19: target 1 C4A,G13U (mixed)
RNA 1: B1 RNA 1
RNA 2: B2 RNA 2 with C32A, G39U, A45C, C48A
B20: target 1 C6U,U19A (mixed)
RNA 1: B1 RNA 1
RNA 2: B2 RNA 2 with C32A, U33A, A45C, C46U
B21: target 1 C7U,U11G (mixed)
RNA 1: B1 RNA 1
RNA 2: B2 RNA 2 with C32A, U41G, A45U
B22: target 1 insC 3' of 8,insG 3' of 2 (mixed)
RNA 1: B1 RNA 1
RNA 2: B1 RNA 2 with G47C, A48G, G51C, C52G
B23: target 1 insU 3' of 9,insG 3' of 9 (mixed)
RNA 1: B1 RNA 1
RNA 2: B1 RNA 2 with C45G, C46U, G47C, A48C, C49G, U50C, G51U
B24: target 1 insC 3' of 14,insA 3' of 11 (mixed)
RNA 1: B1 RNA 1
RNA 2: B1 RNA 2 with G39C, U41G, C45A, C46U, G47C, A48C, C49G, U50C, G51U
B25: target 1 insC 3' of 14,insC 3' of 5 (mixed)
RNA 1: B1 RNA 1
RNA 2: B1 RNA 2 with G39C, U41G, A43U, U44A, C45U, G47C, A48G, U50C, G51U
B26: target 1 U10A,A16U (mixed)
RNA 1: B1 RNA 1
RNA 2: B2 RNA 2 with C32A, A36U, U42A, A45C
B27: target 1 A9G (mixed)
RNA 1: B1 RNA 1
RNA 2: B2 RNA 2 with C32A, A43G, A45C
B28: target 1 U3A,U8A (mixed)
RNA 1: B1 RNA 1
RNA 2: B2 RNA 2 with C32A, U44A, A45C, U49A
B29: target 1 insA 3' of 12,insG 3' of 8 (mixed)
RNA 1: B1 RNA 1
RNA 2: GGGAAUGGAUCCACAUCUACGAAUUCGUACCAUAGAGAGGAUUAUGCCGCUCACCGAGAUCGGAAGAGCACACGU
B30: target 1 insU 3' of 12,insG 3' of 4 (mixed)
RNA 1: B1 RNA 1
RNA 2: B29 RNA 2 with A41U, G46C, C48G, G49C, C50G
B31: target 1 insG 3' of 20,insA 3' of 7 (mixed)
RNA 1: B1 RNA 1
RNA 2: B6 RNA 2 with U32A, A33G, U40G, G42U, U44A, A45U, U46C, C47A

The binders below were run against T1, EsCas13d, nuclease-dead (assay: crRNA (strand 1, pre-loaded); Mg2+; 40 mM Tris-HCl pH 7.5, 150 mM NaCl, 6 mM MgCl2, 1 mM DTT, 0.1% Tween-20, 0.2 mg/ml BSA; 25 C; 10 min per concentration, then washed). Details: tags: His6-TwinStrep-SUMO cleaved; N-terminal SNAP kept (SNAP-Surface 488); label: 3' end held by stalled T7 RNA polymerase.

Compared with B1, B2 is 10-fold higher in Kd: 5.94 ± 0.29 nM for the first, 61 ± 22 nM for the second. The first binds more tightly here.

B3 and B4 are within error of each other in Kd: 57 ± 5 nM for the first, 55 ± 4 nM for the second.

Compared with B5, B6 is 2-fold lower in Kd: ~90 nM for the first, 45 ± 9 nM for the second. The second binds more tightly here.

B7 and B8 are within 1.5-fold of each other in Kd: 13.9 ± 2.1 nM for the first, 10.3 ± 0.5 nM for the second.

Compared with B9, B10 is 2.6-fold higher in Kd: 9.4 ± 0.6 nM for the first, 24.1 ± 2 nM for the second.

Compared with B11, B12 is 2.4-fold higher in Kd: 32.2 ± 2.7 nM for the first, 76 ± 10 nM for the second. The first binds more tightly here.

First: B13
Second: B14
The Kd of the first is 4.1-fold lower: 19 ± 4 nM for the first, 78 ± 15 nM for the second.

Compared with B15, B16 is 2.3-fold higher in Kd: 9.1 ± 0.6 nM for the first, 20.7 ± 0.9 nM for the second.

Compared with B17, B18 is 3.8-fold higher in Kd: 7.54 ± 0.28 nM for the first, 28.9 ± 2.7 nM for the second.

Compared with B19, B20 is 2-fold lower in Kd: ~70 nM for the first, 34.9 ± 2.4 nM for the second.

Compared with B21, B22 is 2.2-fold higher in Kd: 9.7 ± 0.6 nM for the first, 21 ± 1.5 nM for the second.

Compared with B23, B24 is 3.2-fold higher in Kd: 13.2 ± 0.5 nM for the first, 42 ± 5 nM for the second.

Going from B25 to B26, the Kd falls from 75 ± 17 nM to 42 ± 4 nM (1.8-fold).

B27 and B28 are within 1.5-fold of each other in Kd: 13.2 ± 0.4 nM for the first, 10.6 ± 0.5 nM for the second.

Going from B29 to B30, the Kd falls from 32 ± 2.7 nM to 4.6 ± 0.17 nM (7-fold). The second binds more tightly here.

B31 was tested, and the Kd was 26.1 ± 3 nM.
